Assay results from the DeepSol protein solubility set.

assay: soluble on expression in E. coli; label from the status in PepcDB or PDB records

Soluble on expression in E. coli, soluble:
MEKDAQAGEPEEEEVDDELSSTDLYEDSMAEVTLNETRGGHDSDPFDRSGEYDEDVDLAAPPPITPDIPEIPADVLISLKNRAEGTAIDLKNLKNPFDDSQKVDESEVEAPLK
GSNGMSQLPAPVSVESSWRYIDTQGQIHGPFTTQMMSQWYIGGYFASTLQISRLGSTPETLGINDIFITLGELMTKLEKYDTDPFTTFDKLHVQTTSSDS
MALIVQKFGGTSVGTVERIQAVAQRIKRTVQGGNSLVVVVSAMGKSTDVLVDLAQQISPNPCRREMDMLLSTGEQVSIALLSLALQEIDQPAISLTGAQVGIVTEAEHSRARILEIRPDRLEHHLREGKVVVVAGFQGISSVEHLEITTLGRGGSDTSAVALAAALKADFCEIYTDVPGILTTDPRLVPEAQLMAEITCDEMLELASLGAKVLHPRAVEIARNYGIPLVVRSSWSDEPGTKVVAPPVQNRSLVGLEIAKAVDGVEYDADQAKVALLRVPDRPGVASKLFRDIAQQQVDIDLIIQSIHDGNSNDIAFTVVKDLLNTAEAVTSAIAPALRSYPEADQEAEIIVEKGIAKIAIAGAGMIGRPGIAAKMFKTLADVGVNIEMISTSEVKVSCVIDQRDADRAIAALSNAFGVTLSPPKNQTDTSHLPAVRGVALDQDQAQIAIRHVPDRPGMAAQLFTALAEANISVDMIIQSQRCRINQGTPCRDIAFMVAEGDSSQAEAILQPLIKDWLDAAIVVNKAIAKVSIVGSGMIGHPGVAAHFFAALAQENINIEMIATSEIKISCVVPQDRGVDALKAAHSAFNLAGTKTVTVPA
ALRGTVTDFSGFDGEADAEVLEKAMEGLGTDEDSILNLLTARSNAQRQQIAEEFETLFGRDLVNDMKSELTGKFEKLIVALMKPSRLYDAYELKHALKGAGTDEKVLTEIIASRTPEELRAIKQAYEEEYGSNLEDDVVGDTSGYYQRMLVVLLQANRDPDTAIDDAQVELDAQALFQAGELKWGTDEEEFITILGTRSVSHLRRVFDKYMTISGFQIEETIDRETSGNLENLLLAVVKSIRSIPAYLAETLYYAMKGAGTDDHTLIRVIVSRSEIDLFNIRKEFRKNFATSLYSMIKGDTSGDYKKALLLLSGGEDD

Soluble on expression in E. coli, not soluble:
MKKEEMDVVSLRIIKLYFLGIRELNFPDYNKRFQQKDMELFIQLADMMENLPNLDEQLIYELEELKDYLFYVKTEKYSLTVHDMFLEMKSELEKII
MGSDKIHHHHHHMITAAVVTFHTSRKDLIRLIDCVLQSSVDKFFIIDNSTNDALRELESVSERITYIYSDNLGFGSGHNIAIDRAIDLGSDYHIIINPDIYWNGDIIEQLVQFMDQNKDCGLVMPKILYPNGEVQYLCKLLPTPLDLFGRRFIPFKMFQEKRNAWYEMHWSGYDKVMEVPSLSGCFMFIRTDILKKTGGFDKRFFMYAEDMDLCRRIGEITRTMYYPSVLVFHEYEKGSYKNRKLLKYHICSIIKYFNKWGWFIDKKRRKKNDYCLKLTEHIRN
MGSDKIHHHHHHMKRFNIIITLSATLGLFSCELDKMPMDQVSDAVFWQKPADFELAANDFYFGLQEVSQYIDMNSDIAFGSGTNDVSDGSYLAPVNSDDWDNPWKFVQSTSYLLKKAEESGLSDEEIGRWKAEAHFFRAYNYWKLVKTYGGVPKIDIPLNTSSEELYTPRSSQQEIIDFIIEDLDKAIPLLPKQSGLTAEELGRTTQGAALALKARAALFEGTWQKYHGMADAGKYLDLAIQAAQAIVDSKEYELYREKGELSYKYLHILEGDDSKEVLLARRYYKLRATHNWTRELLLGAMVPTKNLADVYLCTDGLPIDKSKLFKGFQTQTSEFENRDSRMAQTFVVPGSEIFSEGGGWATVEPGFIGNNSTRTGYMIRKFMDETLDAVQFIGEYDFKEFRYGEVLLILAEALYEKNGQITDEQLDLTINDLRNRANMPRLTNAFVATNGLNMQEEIRRERTVELAFEGYRRDDLRRWGTAETVLPLAIRGVKFVGTEYQQKFPELVIGQDIQVDSEGFIIAQPASARKFQTPKHWLSPIPLQQVQLSKGTLEQNPGW
MTLMIDENFKKQLAQRRERVEDLFYFENSKEIGRGTYGLVYKAVPKKQNGQFPNKEYALKMIEGQGFSMSACREIALFRELRHPNLICLQRVFLTNEKKVWLLLDYAEHDLWHVIKHHRTAKSKKVPIMVPRNMVKNILFQILSGMHYLHSNWVLHRDLKPANILLMGDGPPDMRGRVKIADLGFSRIYANPLKPMAELDPVVVTFWYRAPELLLGAKHYTKAIDVWAIGCIFAELLTAEPLFFCKEEDIKAQNPYHYDQVKRIFHLLGYPSDADWPDMKKMPDHQRLLSDARNEGTPIQTFPNSLHRYFDKWKINSQSSPYRLLVKLLTVDPTKRVSCEEAMNDIYFRKMERPPRETDDVFNKYPIPYAKKEQQMTVAPDQAQQQHQQQQVQMQQQPQMGQQQMMGQPQMVQPQMGQPPMGGAHPGVVAPDGHPHQMMQQQQHPQQHHMQYQGMHDPMQGGMDEGPQAKMMRMGNVPVGRYAPMPPPYGAPQDYHPQQGPPMVQMMQQPGPSGYYPQRPGQPTGAVPGPGPQGYMNPQMGMQMGMRAPGVPPQGYMPGRGMAPPQMGQQQPGPNQQQQQQWQQQYHR
MGSDKIHHHHHHMKVKSVSEILIYPPDRIVGDLWIVRNWVTKRNYKVSSPTLAILLYCKIPHTVGDILDFFYEKYGIKNELIHLGLKKLMATDLLLEVKQEMDGSNEVFGLEFDNWYKHNWYMALLYHLVSYDYPFIEDYVAKQRMINYSSQEIDSNRYKEYNSQVSYDIPKATEVKIRETNTSKQKCVNFADLLTMASLGYTRVGSLRVYWNGDPLILRTSPSGGSRHPTETYIVAINVEGLESGWYHISVKDSKLEQIKIGGTDPDDLRLLFPTTYVRPDFHVDLILIFTSIFERNMYRYREPRTFRTIHMDVGHLAATTEIICEKLGYKYLVQYSANDEGIEKFLGLSPLKEGYMASMAIGN
MFARLANPAHFKPLTGSHITRAAKRLYHPKVIDHYTNPRNVGSMDKSLANVGTGIVGAPACGDVIKLQIQVNDKSGIIENVKFKTFGCGSAIASSSYMTELVRGMSLDEAVKIKNTEIAKELSLPPVKLHCSMLAEDAIKAAIKDYKTKRNPSVLH
MNHSRTIPVVNIAGPGSQPEEEDFNFLPIPAGINLPLTPVLPEQALPAELRVARHILTTLIRDMDNPVATLPFPLSYKLNATEQQNSGLLDQLLGEGEISARVLLSDGKEQRIQETVFTGVWRVREYNADQQRVADEIIIGPIPESIWQTHPQPPITPELPPQPAGLMNGAFIAHEIAERVKQPVKEPHIINLTLLPVNDADREYLDHFLGEGCSAIFSRGYGKCRIVSTHFPGVWRVNYFNDMNTLLQDMIEIADIPDIAVAGIDDIEDAYAGLKNTLEWLKEYPVTENEPVVRMECKVCWWVYDPALGDDVWQIPPGVPFNQLPDYWCCPVCETSKSGFMVIDEGNSSCKD
MSLSELLDLSFLSEEEKDLILSVLQRDEEVRKADEKRIRRLKNELLEIKRKGAKRGSQHYSDRTCARCQESLGRLSPKTNTCRGCNHLVCRDCRIQESNGTWRCKVCAKEIEMKKATGDWFYDQKVNRFAYRTGSEIIRMSLRHKPAVSKREGHHHHHH
MGSDKIHHHHHHMEQLQKRKIYDTTASNASTGILNGKSSNVLNWDDVRFSWAYPLYKNMLANFWTPFEINMSHDAKQFPTLTETEQEAFKKIIGLLAFLDSVQTDYSMRAAEYLTDSSLAALMSVLSFQEVVHNQSYSYVLSSLVPKATQDEIFEYWKHDDVLKERNEFIIDGYEKFVDNPTPKTFLESIVYDVILEGLNFYSGFAFFYNLARNQKMVSTSTMINYINRDEQLHVYLFTNIFKELLVEFPELNTEETKTFVKTTLMKAADLEKDWFRYIIGDKIPGINPEDMETYISFIANKRAVQLGMEKPYPEIKHNPMKWIRAYEDVNSGKSDFFEQKSRQYAKVSADNGFDEL
MGSDKIHHHHHHMETVQYDYKQILQRIVAEIKSSRIQVARKITSATMELYWNIGKELSAQHLSKGYGAQVVEMLASDLQKEFPGTTGFSSRNLWEMKRFYERYCGESRKLQQSVAVLPWGHNLLLMSKCKNPEEIYFYATRSTELGWTRDVLLNYIKADAFSTREEQPKLHNFKETLPECLQEQAEEMLKSRYNLEFLGITKPILELELERRLVDKIKTFLLEMGKGFSFIGNQYRLVLEDKEYFVDMLFFNRCTRSLIALELKIGSFQPEYVGKMNFYLNLLDRQVKMPDENPSIGIILCADRNNVEVEVALQGSTAPIGVSEYSYLIPQKQIKELINNELSGNKE
MAFEKIIQLKNCRYDYTLSPSVKKFTLKDNTFFETKVGNYELTRLLEKVPNSGEGFQLKIIINKELTGAKINITDKFGLRLVDIFKSEDHHIHQEKFYFLMDSLVERGVFTKSER
MGSDKIHHHHHHVASQTPGTEAQSQTVQPGRIAAISLHTSPLDQPGTGDAGGMNVYIVEVAKRLAERGIAVDIFTRATSFEQPPEVELAPGVTVRNIAAGPYGTLDKTALINYLCPFVHGMLRAEAEHLGGSYDLVHTHYWLSGQAGWPVAREWGVPLVHSMHTMARVKNMSLAEGDTPEPEERVRGEDALVALADRLIANTDDEAAQLINYYGASPSRVSTVFPGVDLTTFTPGSRAESLRRLGLPEDTILLLFVGRVQRLKAPDVLLRAAARLLELNPSLRDRLVVAVVGGQSGTGYREPWLLSDLADSLGIADLVRLEPPCPRAELVHYYRAATVTVVPSHSESFGLVAVESQACGTPVVAARVGGLPTAVRDGVSGVLIDGHDPHDYANVLHRMITEPRWRERMGAAGIHHASGLSWESTVDGLLAAYRDALHQCRLTVPCR
MGSDKIHHHHHHMSNSELYYEELTDLSVRIALGIKNRTEPLDELSQAMTQLSQTNAIKGNAANAMKAYINEVHMTLIQTLELLLNNYEMALGKYVKGYLEVDSDESFKLIKEDFDAHKNNLSSHQSDFTSIGNKLKAISDEAEDIISLRGAGSKRLFNVAKDMGTMKEIVSNLNNKWNDYEQSDPGFNQVQDLIAQTTSLLKSTLSVPRGYSYSPGSFSKLISKDFVNAFEVNANYAQNPDNQKAFKANWNSISKNYTTDQKRMAEEAKEEAQKDGRIGLIWDAIASCCRNSACCDRSWSGFWCCSHCRWY
MACKLLFWKLKDYQNILLYSPLGHELDIRPLIFRLRQKNKCVWLPKSIKKGAHFSKESFTIAPFRLPLRRLGWFDEPSLSRYYKQELDCIVVPILGMDTSFRRVGFGLGMYDRSLPQLLKRRLKRPLIVFVSRELAIANGVLTNAYDIEADLYMNARIVVKNNKRKHYEQRVNLHFIRSLGSVFDYRSSHVLCDEKDLLRLEHHHHHH
MGSDKIHHHHHHMNFTMNFPGLKDTFITKVEEVGEIVRLYVEMERKVHRCPKCQKRTKKVHDYRIQKIKHLKWFERQTQIFYKRRRYVCACGKRFAENNSFVERYQRTSIEWNQAVAIRAIKGKTFKETAENYGSSATTIVRRFDQISSSEIRPVEELPAIIAIDEYKGDTKEGKYQLIIADAVTKEPLDILPNRYKRTIKDYLRRHGSKVQMVIMDMSPSFKAAVQEALGRPVIIADRFHFCRYIYWALDGVRRRVQKDFHAYDRKKCKRMKHVFHKENSRLTEEERWYLDRYLKMSTELQKAYELKEAYQDWFKRSKEIGATQIERVKKELKAIYKLVKNSGIPEMCRAIGTFENWQTEILNSFAYGYSNGFLEGINNSTKVLKRNAFGFRSYERFRAKILLTHKYKRIGVHIG
